In publication PMC5477490 (Nature Communications, 2016):

Experiments:
Test in all cases: BLI; […] (AHC) biosensor, […]; Octet Red; 25 °C; kinetics buffer 1 × PBS, pH 7.4; association 900 s, dissociation 900 s; […]
Conditions in all cases: both partners purified
HA of A/WSN/1933(H1N1) = HA of A/WSN/1933(H1N1) (Influenza A virus A/WSN/1933(H1N1), strain)
[1] = molecular target: HA of A/Hong Kong/483/1997(H5N1) (Influenza A virus A/Hong …, strain)
[2] = molecular target: HA of A/Anhui/1/2005(H5N1) (Influenza A virus A/Anhui/1/2005(H5N1), strain)
[3] = molecular target: HA of A/California/07/2009(H1N1) (Influenza A virus …, UniProt C3W5X2, strain)
[4] = molecular target: HA of A/Vietnam/1203/2004(H5N1) (Influenza A virus …, UniProt A8UDR6, strain)
[5] = molecular target: HA of A/Brisbane/59/2007(H1N1) (Influenza A virus …, strain)
[6] = molecular target: T1, HA of A/Brevig Mission/1/1918(H1N1) (Influenza A virus A/Brevig …, UniProt Q9WFX3, strain)
T1 construct: source: bought: Sino Biological Inc

[7] = molecular target: HA of A/Canada/720/2005(H2N2) (Influenza A virus …, UniProt Q4ZH98, strain)

B1: human mAb 3E1 (antibody, V domains shown)
VH: QVQLQESGPGLVKPSETLSLTCSVSGASISSYYWIWIRQPAGKGLEWIGRFYTSGSPNYNPSLRSRVTMSVDTSKNQFSLKLTSVTAADTAVYYCAREEHITFGGVIVRYWGQGTLVTVSS
VL: DIQMTQSPATLSASVGDRVSITCRASQSISSWLAWYQQKPGKAPKLLIYKASSLESGVPSRFSGSGSGSEFTLTISSLQPDDFAIYYCQQYNSYPWTFGQGTKVEIK
notes: IgG1, kappa; also called 3E1 mAb
binding result (HA of A/WSN/1933(H1N1)): binds
binding result [1]: binds
binding result [2]: binds
binding result [3]: binds
binding result [4]: binds
binding result [5]: binds
binding result [6]: binds
binding result [7]: no binding
